Assay [1] addresses HLA-A*01:01. Nature of the assay: IEDB peptide-MHC binding, purified MHC/competitive/radioactivity; filed as Kd, often an IC50 or EC50 that approximates it; ≥ and ≤ were set here for values at or beyond the usual limits of such assays. The conditions noted are these: source organism: Dengue virus 4 Philippines/H241/1956.
Assay [2] addresses HLA-C*15:02. Description: IEDB peptide-MHC binding, purified MHC/direct/fluorescence; filed as Kd, often an IC50 or EC50 that approximates it; ≥ and ≤ were set here for values at or beyond the usual limits of such assays.
For assay [3], the target named is HLA-A*26:01. Description: IEDB peptide-MHC binding, purified MHC/competitive/fluorescence; filed as Kd, often an IC50 or EC50 that approximates it; ≥ and ≤ were set here for values at or beyond the usual limits of such assays.
Assay [4] addresses HLA-A*69:01. Described as above. The conditions noted are these: source organism: Orthohantavirus puumalaense.
The target in assay [5] is HLA-B*27:03. Described as above.
Assay [6] addresses HLA-B*39:01. The description is as above.
The target of assay [7] is HLA-B*15:01. The assay is described as above.
Assay [8] has as its target HLA-B*57:01. The description is as above.
In assay [9] the target is HLA-B*46:01. The assay is described as above.
Assay [10] deals with HLA-B*51:01. Described as above.
Assay [11] deals with HLA-B*18:01. The description is as above.
The target in assay [12] is HLA-A*02:01. The assay is described as above.
Assay [13] has as its target HLA-B*15:17. The description is as above.
Assay [14] concerns the target HLA-A*24:03. Description: IEDB peptide-MHC binding, purified MHC/direct/fluorescence; filed as Kd, often an IC50 or EC50 that approximates it; ≥ and ≤ were set here for values at or beyond the usual limits of such assays.
Assay [15] concerns the target HLA-A*02:12. Described as above.
Assay [16] addresses HLA-A*23:01. Described as above.
Assay [17] deals with HLA-A*29:02. Described as above.
Assay [18] has as its target HLA-A*02:19. Described as above.
The target of assay [19] is HLA-A*02:03. The assay is described as above.
Assay [20] deals with HLA-A*68:02. The description is as above.
Assay [21] deals with HLA-A*02:11. The description is as above.
Assay [22] deals with HLA-A*02:16. The assay is described as above.
Assay [23] has as its target HLA-B*27:05. The assay is described as above.
For assay [24], the target named is HLA-A*03:01. The assay is described as above.
In assay [25] the target is HLA-C*05:01. The description is as above.
Assay [26] concerns the target HLA-A*01:01. The description is as above. Conditions: source organism: Ebola virus - Gabon (1994-1997).
Assay [27] addresses HLA-A*02:01. Description: IEDB peptide-MHC binding, purified MHC/competitive/fluorescence; ≥ and ≤ were set here for values at or beyond the usual limits of such assays. Conditions: source organism: West Nile virus NY-99.
In assay [28] the target is HLA-B*48:01. Description: IEDB peptide-MHC binding, purified MHC/direct/fluorescence; filed as Kd, often an IC50 or EC50 that approximates it; ≥ and ≤ were set here for values at or beyond the usual limits of such assays. Conditions: source organism: West Nile virus.
In assay [29] the target is HLA-B*58:01. The description is as above.
Assay [30] addresses HLA-B*40:01. The assay is described as above. The conditions noted are these: source organism: West Nile virus.
Assay [31] has as its target HLA-C*12:03. The assay is described as above. Conditions: source organism: West Nile virus.
Assay [32] has as its target HLA-B*07:02. The assay is described as above. The conditions noted are these: source organism: West Nile virus.
Assay [33] has as its target HLA-B*57:01. The assay is described as above.
In assay [34] the target is HLA-B*46:01. The assay is described as above. Conditions: source organism: West Nile virus.
Assay [35] deals with HLA-A*31:01. The description is as above. The conditions noted are these: source organism: West Nile virus.
The target of assay [36] is HLA-B*18:01. The description is as above. Conditions: source organism: West Nile virus.
Assay [37] deals with HLA-B*44:02. The assay is described as above. Conditions: source organism: West Nile virus.
Assay [38] has as its target HLA-B*15:09. Described as above. The conditions noted are these: source organism: West Nile virus strain PTRoxo.
In assay [39] the target is HLA-B*35:01. Description: IEDB peptide-MHC binding, purified MHC/competitive/fluorescence; filed as Kd, often an IC50 or EC50 that approximates it; ≥ and ≤ were set here for values at or beyond the usual limits of such assays.
In assay [40] the target is HLA-C*06:02. Nature of the assay: IEDB peptide-MHC binding, purified MHC/direct/fluorescence; filed as Kd, often an IC50 or EC50 that approximates it; ≥ and ≤ were set here for values at or beyond the usual limits of such assays. The conditions noted are these: source organism: human gammaherpesvirus 4.
[41] abbreviates: source organism: Orthohantavirus puumalaense.
Where [42] appears, read: source organism: Zaire ebolavirus.
The mark [43] stands for this setting: source organism: Mycobacterium tuberculosis str. Haarlem.
Where [44] appears, read: source organism: West Nile virus.
Setting [45] is: source organism: Giardia lamblia ATCC 50803.
[46] abbreviates: source organism: Bacillus anthracis str. A0488.

With FTTNIWMKF, the Kd in assay [1] was 5.16 µM; in assay [2] (source organism: dengue virus type 4), not below 20 µM.
With LRYGNVLDV, the Kd in assay [3] (setting [41]), in assay [4], in assay [5] (setting [41]), in assay [6] (setting [41]), in [7] (setting [41]) and in assay [8] (setting [41]) was not below 20 µM in each case. Further, the dissociation constant (Kd) in [9] (setting [41]), in [10] (setting [41]), in assay [11] (setting [41]), in assay [12] (setting [41]), in assay [13] (setting [41]) and in assay [14] (source organism: Choclo virus) was not below 20 µM each time. Moreover, the Kd in assay [15] (source organism: Choclo virus), in assay [16] (source organism: Choclo virus), in assay [17] (source organism: Choclo virus), in assay [18] (source organism: Choclo virus), in assay [19] (source organism: Choclo virus) and in assay [20] (source organism: Choclo virus) was not below 20 µM throughout. For the same sequence, the dissociation constant (Kd) in assay [21] (source organism: Choclo virus) was not below 20 µM; in assay [22] (source organism: Choclo virus), not below 20 µM; in [23] (source organism: Isla Vista hantavirus), 0.951 µM; in [24] (source organism: Choclo virus), not below 20 µM.
KTWGQYWQV showed a Kd in assay [2] (source organism: Homo sapiens) of 0.049 µM.
Regarding LSDLCNFLV, the Kd in assay [3] (setting [42]), in assay [5] (setting [42]), in assay [6] (setting [42]), in assay [7] (setting [42]), in [8] (setting [42]) and in [9] (setting [42]) was not below 20 µM in each case. In addition, the Kd in assay [10] (setting [42]) was not below 20 µM; in [11] (setting [42]) it was not below 20 µM; in assay [12] (setting [42]) it was not below 20 µM; in [13] (setting [42]) it was not below 20 µM; in [25] (setting [42]), 0.013 µM; in [14] (setting [42]), not below 20 µM. For the same sequence, the Kd in assay [15] (setting [42]), in assay [16] (setting [42]), in [17] (setting [42]), in assay [18] (setting [42]), in assay [19] (setting [42]) and in assay [20] (setting [42]) was not below 20 µM each time. Moreover, the Kd in [21] (setting [42]) was not below 20 µM; in assay [22] (setting [42]), not below 20 µM; in assay [26], 0.0671 µM; in assay [24] (setting [42]) it was not below 20 µM.
Turning to AYLFTPLFK, the results for the Kd in assay [14] (setting [43]) and in assay [16] (setting [43]) were 0.185 µM and 0.356 µM, respectively.
For YTMDGEYRL, in assay [27], the IC50 was found to be 0.291 µM. The Kd in assay [12] (setting [44]) is 0.00137 µM; in [28], not below 20 µM; in assay [29] (setting [44]), not below 20 µM; in assay [30], not below 20 µM; in assay [31], 0.347 µM; in assay [32], not below 20 µM. For the same sequence, the Kd in [33] (setting [44]) is not below 20 µM; in assay [2] (setting [44]), 0.085 µM; in assay [34], not below 20 µM; in assay [35], not below 20 µM; in [36], not below 20 µM; in assay [37], not below 20 µM. Further, the Kd in [23] (setting [44]), in [24] (setting [44]) and in assay [38] was not below 20 µM throughout.
For the sequence TVSPSAPTY, the Kd in assay [39] (setting [44]) was not above 0.0001 µM; in [34] it was not below 20 µM.
In the case of RTHEESLRL, the Kd was found to be 1.48 µM in assay [29] (setting [45]), 2.08 µM in assay [33] (setting [45]) and 0.05 µM in [2] (setting [45]).
As to VTDEGTSSF, the Kd in assay [25] (source organism: human gammaherpesvirus 4) is not above 0.001 µM; in assay [40] it was 0.332 µM.
As for MTVFSYKAF, the values for the Kd in assay [7] (setting [46]) and in [39] (setting [46]) were 0.19 µM and 0.154 µM, respectively.

The term Kd denotes the concentration at which binding is half-saturated. Usually IC50 stands for the concentration that inhibits the measured activity by half.

The values above are taken from the Immune Epitope Database (IEDB).
